{"source": "IntAct's records for PubMed 26824392", "molecular_target": "rab8a_human RAB8A (UniProt P61006)", "sequence (P61006 whole entry)": "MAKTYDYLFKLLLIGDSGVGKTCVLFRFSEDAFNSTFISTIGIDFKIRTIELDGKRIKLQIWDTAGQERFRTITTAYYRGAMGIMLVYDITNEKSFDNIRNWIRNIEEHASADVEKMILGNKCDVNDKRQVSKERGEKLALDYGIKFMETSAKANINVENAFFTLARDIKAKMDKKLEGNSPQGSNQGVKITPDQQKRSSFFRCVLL", "data": [{"substance": "Leucine-rich repeat serine/threonine-protein kinase 2 (Homo sapiens), Q5S007 R1441C", "values": [{"measurement": "effect of a mutation on the interaction", "result": "with no effect"}]}]}
